Data published in patent US20230355660A1.
Square brackets hold non-standard residues; d marks the D form. Ends that are not written are not given here.

target: mAB anti V5 (Thermo Scientific), mouse anti V5 antibody; experiment: ELISA: 1 µg/ml mouse anti V5 antibody with increasing amounts of SADC, complexes captured on streptavidin plate via biotinylated SADC peptide, bound IgG detected with anti mouse IgG-HRP

How did the EC50 turn out when IPNPLLGLDGGSGDYKDDDDKGK[BiotinAca]GC (peptide, part only; not given: transferrin scaffold, part only, also: peptide conjugated to transferrin scaffold, copy number not given here) [SADC with transferrin scaffold carrying tagged V5 peptide] was run?
Its EC50 is 0.007 µg/mL.

For IPNPLLGLDGGSGDYKDDDDKGK[BiotinAca]GC (peptide, part only; not given: haptoglobin scaffold, part only, also: peptide conjugated to haptoglobin scaffold, copy number not given here) [SADC with haptoglobin scaffold carrying tagged V5 peptide], which EC50 is on record?
Its EC50 is 0.0555 µg/mL.

With IPNPLLGLDGGSGDYKDDDDKGK[BiotinAca]GC (peptide, part only; not given: albumin scaffold, part only, also: peptide conjugated to albumin scaffold, copy number not given here) [SADC with albumin scaffold carrying tagged V5 peptide] as the binder, how does the EC50 read?
The EC50 was 0.0279 µg/mL.
